Assay: soluble on expression in E. coli; label from the status in PepcDB or PDB records

Q: Which “soluble on expression in E. coli” value does the source give for “MRHDGRQHDELRPITFDLDFISHPEGSVLITAGNTKVICNASVEDRVPPFLRGGGKGWITAEYSMLPQATNQQTIQESSKGKISGRTMEIQRLIGRALRAVVDLEKLGERTIWIDCDVIQADGGTRTASITGAFLAMAIAIGKLIKAGTIKTNPITDFLAAISVGIDKEQGILLDLNYEEDSSAEVDMNVIMTGSGRFVELQGTGEEATFSREDLNGLLGLAEKGIQELIDKQKEVLGDSLPELK” here?
A: soluble

Q: With “MGSDKIHHHHHHMELIEILLKKLNKNAVVTEIAKDKDPFKVLISTIISARTKDEVTEEVSKKLFKEIKDVDDLLNIDEEKLADLIYPAGFYKNKAKNLKKLAKILKENYNGKVPDSLEELLKLPGVGRKTANLVITLAFNKDGICVDTHVHRICNRWEIVDTETPEETEFELRKKLPKKYWKVINNLLVVFGREICSSKSKCDKCFKEIKEKCPYYEKIKHFENILKKFNFRKVSKNKIPNEKGTYILKIRLKEGKKIKFGKTERFFKKGYYFYIGSAFGNSMNLKNRIERHLKDDKKMHWHIDYLLKYGKIEEIYITNERVECEVANEFIKKFDFVENFGCSDCKCKSHLFYLKP” as the sequence, how does the “soluble on expression in E. coli” value read?
A: not soluble

Q: With “GKKDTQSITLEELAKIIKKCKHVVALTGSGTSAESNIPSFRGSSNSIWSKYDPRIYGTIWGFWKYPEKIWEVIRDISSDYEIEINNGHVALSTLESLGYLKSVVTQNVDGLHEASGNTKVISLHGNVFEAVCCTCNKIVKLNKIMLQKTSHFMHQLPPECPCGGIFKPNIILFGEVVSSDLLKEAEEEIAKCDLLLVIGTSSTVSTATNLCHFACKKKKKIVEINISKTYITNKMSDYHVCAKFSELTKVANILKGSSEKNKKIM” as the sequence, how does the “soluble on expression in E. coli” value read?
A: soluble

Q: For “MGSDKIHHHHHHMEYEIVIGLEVHAELATKTKMYCGCTAEFGGQPNTHVCPVCMGLPGALPHINKRAVDYGIKAGLALNCSITHIGRMDRKHIFYPDNSRNYQITQDELPLCTNGYIEIELEDGSKKKIGVERIHIEEDAGKLLHTNAGTLVDFNRCGVPLAEIVSKPDMRSPREAVTYLEELKSILSCVGVSDCKMEEGSLRCDANISVMKKGAKEFGVRTEIKNMNSFKAVEKALNYEYERHIKAIESGEKLTQETRRWDDAKNETAPMRSKEEANDYRYFPEGDLVTLNIDDEWIESIRKTIPELPYQKRERFIKEFGIPKYDASVLTLTMSMADFFEKTAKISGDAKSASNWLMGDISKIMKENYVWIEDLKFTPEQLSELIKLINEGTVSNAIGKKVIIKMFETGKSPKNIIEEEGLIQNSNEDEILNIVKEVLSENEKSIEDYKNGKNRVVGFLIGLVMKKTKGKANPKIVNKLMIDELNKQ”, which “soluble on expression in E. coli” value is on record?
A: not soluble

Q: With “MDERDALRISREIAGEVRKAIASMPLRERVKDVGMGKDGTPTKAADRVAEDAALEILRKERVTVVTEESGVLGEGDVFVALDPLDGTFNATRGIPVYSVSLCFSYSDKLKDAFFGYVYNLATGDEYYADSSGAYRNGERIEVSDAEELYCNAIIYYPDRKFPFKRMRIFGSAATELCFFADGSFDCFLDIRPGKMLRIYDAAAGVFIAEKAGGKVTELDGESLGNKKFDMQERLNIVAANEKLHPKLLELIK” as the sequence, how does the “soluble on expression in E. coli” value read?
A: soluble

Q: With “MHAQFHHVSLLARHGQENQSFYTKLLGLRFVKNTVNQDNNRMPHYFYGDYQGTPGSLVTFFIVPLLGNRYEEKNYLATIGLKIPQNSLSFWEQRLTENKIPFNKKEKSLHFSDPDDTHIILTEVPENPLKETLVVSNDIPAAVQIIGLASTEFHVPDSEKTLAFFETFLGWQAVGNTIILSETESFSVHQTTSDKTSRMGRGSMDHIAFSVADDEALQELHTRALAQGWEIEMYVSRGYFKSLYIREPGGNRVEFATLTPGFTLDEPLEHLGETLALPPFLEPKRTAIEANLYKDM” as the sequence, how does the “soluble on expression in E. coli” value read?
A: not soluble

Q: With “MSHHFRLAKGIPHVVDATPPHSMYNSPISIHYLPKRASSADPFKRKALSKSQRELTDFVNGRNGDPHGLRLPLPIRSSLTDLVKPKLLENRNYQPPRRKTPSKDHHSKAEENSKKAKKLERINKFKDAVLTDLIENDTYSDQMIMNSIRRHMEKLAGVISWDDLEKAADELIKKIGLNTNVQNSRRSSRSRDKNQRFNKPPLPYKVERIGSAQSLESLSSPSSSSAKTSSSSSSSSFSTSSQETNSSESS” as the sequence, how does the “soluble on expression in E. coli” value read?
A: not soluble

Q: With “MAHHHHHHMGTLEAQTQGPGSMLEKKTFKSSHTNAFHDFQARVYVADTDFSGVVYHARYLEFFERGRSEFLRDTGFNNTLLASGVEGEKLFFVVRHMEINFSRPAQIDNLLTIKTRISRLQGARFFMEQYILHGESMLVTAKVEIALINEEGKPRRLPKELFSTIVV” as the sequence, how does the “soluble on expression in E. coli” value read?
A: soluble

Q: For “MGEVKDLGMADHGGFDLKIGARVVLEDVKLGDSIAVNGTCLTVTEFNAEEFTVGLAPETLRKTSLEELKKGSPVNLERALQPVSRMGGHVVQGHVDGTGVIESMEVEGDSLWVKVKADKGLLKYIVPKGFVAVDGTSLTVVDVFDEESCFNFMMIAYTQQNVVIPTKKIGQKVNLEVDIMGKYVERLLTSGGFSKGN”, which “soluble on expression in E. coli” value is on record?
A: soluble

Q: Which “soluble on expression in E. coli” value does the source give for “MSLKGTDRIKVLHMSDFHIDPRYATGSEGNCTSGLCCRRGNPVESLNSNYTVSVPAPRFGYFLCDTPWALGAAAVEAIPVLTGTDEDDAFNMTIFTGDMVSHDPYYELSRDYIEYTETALYDLWKQTLNPTSPLYAAIGNHDSYQQAFDAPSSLPGKLRKQSSWNYEHLAGLWESEGWIDGEVAQKVKTHYGAYSIQHATNLKIITINTDLWYRANIFAYINSTHPDNFGFLKFLAEELQEAEDCNSRAYIVGHVLSGYDGTNPLPGPTDIFYQIIDRYSHVIAGLFWGHTHEDQHMIYYANNGTKMSAETAQNVGWIGPSITPLTDLNSGFRLYEVDAETWDILDAHTWYSNVSTYSSLDGQLEVGPSYVYEYNTRQAYGGNISWPDNAPLNATWWHLVSQDMENDGGALVELYNAHQGKMSTLSPNCTSAECIEAKVCYLRSGSGTLALDNCKTGYGSVQEGHHHHHH” here?
A: not soluble

Q: For “MGSDKIHHHHHHMTLPPPRPPALCRGVVGLPLETQIDLTASNLAAVADLAAQYGLLIYLEALSWTPLNTIDRQLRTIEIANRDNIRLVIDFWHCYTSGDTPKHIARLHKDIIYGVHICDSLAYAGGVPDENMLRDVPTGNGVLNLKEWVDAVKSTGYDGWWSCELFCRRQHQENSYDVARSLNALMRDLVGA”, which “soluble on expression in E. coli” value is on record?
A: not soluble

Q: With MREKWRKKRMRRLKRKRRAAKK as the sequence, how does the “soluble on expression in E. coli” value read?
A: not soluble

Q: Which “soluble on expression in E. coli” value does the source give for “MFTGIIEETGTIESMKKAGHAMALTIKCSKILEDVHLGDSIAVNGICLTVTDFTKNQFTVDVMPETVKATSLNDLTKGSKVNLERAMAANGRFGGHFVSGHVDGTAEITRIEEKSNAVYYDLKMDPSLTKTLVLKGSITVDGVSLTIFGLTEDTVTISLIPHTISETIFSEKTIGSKVNIECDMIGKYMYRFLHKANENKTQQTITKAFLSENGF” here?
A: soluble

Q: For “MSLELSDCSVPLTKEDIKDFEMELNIKIPAAMKNFYLKFNGGMPSPYCFQPQDEDLDWVEINAFFPIKERTNAFETIEVIAKDIWSKNLMPCNLLPFAMDSGGNYYTLNLKNKKIYYYLTDEWDENASKEYNFETNTRYIAQSFNYFINHFIEEEEEGHHHHHH”, which “soluble on expression in E. coli” value is on record?
A: soluble

Q: With “MSEAQGQGKQSLVEMLKAMVQARASDIHLQAGAPPTVRIDGKLRPFGNRPLTPKEVEAIARALLTPEQLEELEYRKEMDFAYTIPGVARFRCNLLRQRGSFGLVMRVVSEVIPSFEALGLPREVMESLAAKERGLILVTGPTGSGKSTTLAALIDHINLHYAKNIITIEDPIEFLHKHKKSLVVQREVGLDTDSFYTGLKYALRQDPDVIMVGEMRDRETVEAALMAAQTGHLVLSTLHTLDAWRTINRIIDFFPLHEHRQVRVLLAESLLGILSQRLLPKADGQGRVLALEILIATPYVRELLKDEEKMPQIKEAMMEGSLYGMRTFDQHLVELYTEGLISLEDALSAATSPHEFRLLLTKATGQTY” as the sequence, how does the “soluble on expression in E. coli” value read?
A: soluble

Q: With “SLRITLEFTGEKNLILPIHYNYIVQGLLYDLMGDTDFAAFLHDVGFQYEKRRFKLFTFSRIEGEFQIVEKPNGQKKIIIKPPFKFTVASPLEEVIIDISKNILKREYCHFNGQKFTLNSLNIENPPIFKEKARIKFISPVVMYTTLRNGEKKYTYYYSPWDEKFSPLLLNNLVKKYELVYKIKPKNPHFKLIPLTEKEDRRYSKVIKYKNVYVKGWMGIYDVETTPELLELAYYTGLGAKNSQGFGCFEIIG” as the sequence, how does the “soluble on expression in E. coli” value read?
A: not soluble

Q: With “MGSDKIHHHHHHKENNDFSSMQMKGVEQVSVKVDLDPAVERLSKAVQFRTISNQDRNDFDEKAFTDYHQFLEKAYPNVHKTLKREVLGSPRPFSLLYTWKGKDPSLPPALFYAHQDVVPVPSESRDQWAVDPFAGAVQDGYIWGRGVLDDKNQIHGILEAAEMKIKEGWQPSRTLYFVFGQDEEVGGPEGAKYIADVLEQRGIKRFAFVIDESAPLTPGIFPGIPDNTALIGIAQKGFVSLELAMNGIGGHSSQPPEESNIGILAKAITKLEAAQFPYRIHEAVRHQYRYMGPELSEDKQPMYAAVAFGKDGEITPLEQKFIDEMASQQVTRAMLHTTIAVTMFNAGIKDNVLPPSATAVVNFRPMPGDTPEVIIAHVKKAIGDDRITVRDISASTPATNVADPSSKSYQQLEKTIRQIYGNDLIVSPFFVIGGSDSKHFQARKFAPDVYTITGLQLESVKEFAGFHGVNERIRVDEYGRTIGFFYKLMDNLEEL” as the sequence, how does the “soluble on expression in E. coli” value read?
A: not soluble

Q: Which “soluble on expression in E. coli” value does the source give for “MKNQLGQLALEQAKTFGGKLEVQPKVDIKTKHDLSIAYTPGVASVSSAIAKDKTLAYDLTTKKNTVAVISDGTAVLGLGDIGPEAAMPVMEGKAALFKAFAGVDAIPIVLDTKDTEEIISIVKALAPTFGGINLEDISAPRCFEIEQRLIKECHIPVFHDDQHGTAIVVLAAIFNSLKLLKKSLDEVSIVVNGGGSAGLSITRKLLAAGATKVTVVDKFGIINEQEAAQLAPHHLDIAKVTNREFKSGTLEDALEGADIFIGVSAPGVLKAEWISKMAARPVIFAMANPIPEIYPDEALEAGAYIVGTGRSDFPNQINNVLAFPGIFRGALDARAKTITVEMQIAAAKGIASLVPDDALSTTNIIPDAFKEGVAEIVAKSVRSVVLKS” here?
A: not soluble

Q: Which “soluble on expression in E. coli” value does the source give for “GQSLRSFQKQNEDNDKRQQILRSINVNVSSSEAETKYNELIKEAFLVNENGEKVEGDAFATDVVKAATEHQYPVFVANVDGQPKYIMALHGAGLWGPLWGYISVDSDKNTIYGADFSHQGETPGLGAEISKPVFSNEFKGKKIFMSGEFKSVAVVKPGKSVAGQDYVDGISGGTITSKGVDEMLFNSLSGYVKFLTSQN” here?
A: soluble

Q: For “MGSDKIHHHHHHMSLFNLSLVTFEIDHEDCWSKLTSSFPVQVKTIFAKPSKGKDYILGMDEVKTYNRRVFKDFLKSFKKEKSIYEIIQILELDSRRGIYRILFKERYENMIMSIIENYMTLYIKDLIKEGNERLLLIMPSSDVTMLKRDLESIGKIHYFNAKLVNFNDFVPTFFDFSEQERNAVLHAIRLGYYEYPRRINLEELGKIMGISKPTLEEYLRKAEKKIMSKIFREFYQQDLLFHSPDY”, which “soluble on expression in E. coli” value is on record?
A: not soluble

Q: For “MYIMKQSGWLELICGSMFSGKSEELIRRVKRATYAKQEVRVFKPVIDNRYSEAAVVSHNGTSMTSYAISSAADIWDHISESTDVVAVDEVQFFDQEIVEVLSSLADKGYRVIAAGLDMDFRGEPFGVVPNIMAIAESVTKLQAVCSVCGSPASRTQRLIDGKPASYDDPVILVGAAESYEARCRHHHEVPGKSKKLEHHHHHH”, which “soluble on expression in E. coli” value is on record?
A: soluble

Q: Which “soluble on expression in E. coli” value does the source give for “PEWDEYIAEQIESGALGEDEGAEFLERWMVQKQHPLDINTLTREDLEQFPFLNEFQIRRFLLYRHAHPEGFDSIWVLSEIAGWDRRTCLLLWPMLTVQKRSESAAASFREILSYARHDVSVHTDAILQQQEGYRPDSRHPYRGDPWGGGLRWSYAMGNRFSLGLTASKDRGEPAFDKRRKGFDSYSAHFFMEGKGAVRAVALGDYRIG” here?
A: not soluble
